How the values were obtained:
Experiment in all cases: cell adhesion assay
[1] = biological target: E-cadherin-Fc S83A (human) (UniProt P12830)
[2] = biological target: E-cadherin-Fc N27A (human)
[3] = biological target: E-cadherin-Fc N86A (human)
[4] = biological target: E-cadherin-Fc E31A (human)
[5] = biological target: E-cadherin-Fc E56A (human)
[6] = biological target: E-cadherin-Fc K30A (human)
[7] = biological target: E-cadherin-Fc D44A (human)
[8] = biological target: E-cadherin-Fc K33A (human)
[9] = biological target: E-cadherin-Fc K28A (human)
[10] = biological target: E-cadherin-Fc E31D (human)
[11] = biological target: E-cadherin-Fc K25A (human)
[12] = biological target: E-cadherin-Fc E89A (human)
[13] = biological target: Purified human IgG1 (human)
[14] = biological target: E-cadherin-Fc KEG30-32RDT (human) (UniProt P12830)

## E-cadherin on MCF-7 human breast epithelial cells (from UniProt P12830 155-882) (natural protein)
[1]
  adhesion as percent of wild type (% of wild-type): 105
[2]
  adhesion as percent of wild type (% of wild-type): 62
[3]
  adhesion as percent of wild type (% of wild-type): 93
[4]
  percent of cells bound: 41%
[5]
  adhesion as percent of wild type (% of wild-type): 90
[6]
  adhesion as percent of wild type (% of wild-type): 99
[7]
  adhesion as percent of wild type (% of wild-type): 94
[8]
  adhesion as percent of wild type (% of wild-type): 91
[9]
  adhesion as percent of wild type (% of wild-type): 94
[10]
  percent of cells bound: 41%
[11]
  adhesion as percent of wild type (% of wild-type): 76
[12]
  adhesion as percent of wild type (% of wild-type): 2

## Integrin αEβ7 on K562 transfectants (K562-αEβ7) (from UniProt P38570 19-1179; P26010 20-798) (complex)
[1]
  adhesion as percent of wild type (% of adhesion to wild-type): 80
[2]
  adhesion as percent of wild type (% of adhesion to wild-type): 57
[3]
  adhesion as percent of wild type (% of adhesion to wild-type): 86
[5]
  adhesion as percent of wild type (% of adhesion to wild-type): 102
[13]
  percent of cells bound: < 1%
[6]
  adhesion as percent of wild type (% of adhesion to wild-type): 53
[7]
  adhesion as percent of wild type (% of adhesion to wild-type): 105
[8]
  adhesion as percent of wild type (% of adhesion to wild-type): 104
[9]
  adhesion as percent of wild type (% of adhesion to wild-type): 79
[11]
  adhesion as percent of wild type (% of adhesion to wild-type): 87

## Integrin αEβ7 on human IEL-496 T cells (from UniProt P38570 19-1179; P26010 20-798) (complex)
[1]
  adhesion as percent of wild type (% of wild-type): > 82
  percent of cells bound: 68%
[2]
  adhesion as percent of wild type (% of wild-type): > 82
  percent of cells bound: 58%
[3]
  adhesion as percent of wild type (% of wild-type): > 82
  percent of cells bound: 57%
[4]
  adhesion as percent of wild type (% of wild-type): < 2
[5]
  adhesion as percent of wild type (% of wild-type): > 82
  percent of cells bound: 60%
[6]
  adhesion as percent of wild type (% of wild-type): > 82
  percent of cells bound: 58%
[7]
  adhesion as percent of wild type (% of wild-type): > 82
  percent of cells bound: 59%
[8]
  adhesion as percent of wild type (% of wild-type): > 82
  percent of cells bound: 60%
[9]
  adhesion as percent of wild type (% of wild-type): > 82
  percent of cells bound: 58%
[10]
  adhesion as percent of wild type (% of wild-type): < 2
[11]
  adhesion as percent of wild type (% of wild-type): > 82
  percent of cells bound: 69%
[14]
  adhesion as percent of wild type (% of wild-type): < 2
[12]
  adhesion as percent of wild type (% of wild-type): 20
  percent of cells bound: 12%

— publication PMC2213439
